In the nanobody polyreactivity screen of Harvey et al. (2022):

Assay: yeast display, Sf9 membrane polyspecificity reagent, FACS + sequencing; frameworks hold sequencing errors
Procedure, shortened: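 Genes from sorted yeast were amplified by colony PCR, read by MiSeq 2 × 250 sequencing and filtered on CDR length. These cells carried a synthetic nanobody library in Saccharomyces cerevisiae BJ5465 and were sorted by FACS into low and high (top ~1%) gates on anti-HA and streptavidin fluorescence. Polyreactivity is labelled according to the gate of origin.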

Sequence	polyreactivity (PSR sort gate)
QVQLVESGGGLVQAGGSLRLSCAASGSTFAANAMGWSRPAPGKERELVAAITSSGGSTYYADSVKGRFTISRDYAKNTVYLQMNSLKPEDTAVYYCNKDIERYVRIYDSWGQGTQVTVSS	low polyreactivity
QVQLVESGGGLVQAGGSLRLSCAASGSTFACNAMGWDRQAPGKERELVAAISWSGGSTYYADSVKGRFTISRDNAKNTVYLQMNSLKPEDTAVYYCAARRYASRTGYLYDFWGQGTQVTVSS	high polyreactivity
QVQLVESGGGLVQAGGSLRLSCAASGSTFADNAMGWYSQARGKAGEFVAGISTNGGSTYYADSVKGRFTISRDNAKNTVYLQMNSLKPEDTAVYYCSAVNYYDQYGDYYWGQGTQVTVSS	low polyreactivity
QVQLVESGGGLVQAGGSLRLSCAASGSTFADYAMGWYRQAPGKERELVAAITQSGGSTSYADSVKGRFTISRDNAKNTVYLQMNSLKPEDTAVYYCNVDDSTWIGAYRRYDYWGQGTQVTVSS	low polyreactivity
QVQLVESGGGLVQAGGSLRLSCAASGSTFADYAMGWYRQAPGKERELVAAITSSGGSTYYADSVKGRFTISRDNAKYTVYLQMKSLKAAETAGYYCNARVPRLLFVRFYGMDYWGQGNQVTVSS	low polyreactivity
QVQLVESGGGLVQAGGSLRLSCAASGSTFAFYDMGWYRQAPGKERELVAIIDWSGGRTYYADSVKGRFTISRDNAKNTVYLQMNSLKPEDTAVYYCNAENTYLGSRYRPYNYWGQGTQVTVSS	low polyreactivity
QVQLVESGGGLVQAGGSLRLSCAASGSTFAGNAIGWYRQAPGKERELVAAIDSSTGSTYYADSVKGRFTISRDNAKNTVFLQMNSLKPEDTAVYYCNKTSFLVNLDYWGQGTQVTVSS	low polyreactivity
QVQLVESGGGLVQAGGSLRLSCAASGSTFAGNAMGWYRQAPGKERELVAAIDSSTGSTYYADSVKGRFTISRDNAKNTVYLQMNSLKPEDTAVYYCNNTSFLVKLDYWGQGTQVTVSS	low polyreactivity
QVQLVESGGGLVQAGGSLRLSCAASGSTFAGNAMGWYRQAPGKERELVAAIDSSTGSTYYADSVKGRFTISRDNAKNTVYLQMNSLKPEDTAVYYSNAEIYPIVKAGRQHPRRYDYWGQGTQVTVSS	low polyreactivity
QVQLVESGGGLVQAGGSLRLSCAASGSTFAGNAMGWYRQAPGKERELVAAISSSGAGTYYADSVKGRFTISRDNAKNTVYLQMNSLKPEDTAVYYCNVGSRALRRRVRSVSFDYWGQGTQVTVSS	low polyreactivity
QVQLVESGGGLVQAGGSLRLSCAASGSTFAGNTMGWYRQAPGKERELVAAITWNGGRTRYADSVKGRFTISRDNAKNTVYLQMNSLKPEDTAVYYCNAGPWYENMDYWGQGTQVTVSS	high polyreactivity
QVQLVESGGGLVQAGGSLRLSCAASGSTFAGYALGWYRQAPGKERELVADITWSGGSTYYADSVKGRFTISRDNAKNTVYLQMNSLKPEDTAVYYCAAAGYYSDMDYWGQGTQVTVSS	low polyreactivity
QVQLVESGGGLVQAGGSLRLSCAASGSTFAGYVMGFYIQATGKERELVAAISGSGGSTYYADSVKGRFTISRDNAKKTVYLQMNSLKPEDTAVYYCAKRAIIKYRGGYGYWGQGTQVTVSS	high polyreactivity
QVQLVESGGGLVQAGGSLRLSCAASGSTFAINAMGWYRQAPGKERELVAAISSSGSTNYADSVKGRFTISRDNAKNTVYLQMNSLKPEDTAVYYCAADQYWDGYDFLYDYWGQGTQVTVSS	low polyreactivity
QVQLVESGGGLVQAGGSLRLSCAASGSTFAINAMGWYRQAPGKERELVAAMSSSGSTNYADSGNGRFTISRDNAKNTVYLQMNSLKPEDTAVYYCAADRVWGTPQAYVPSQFDYWGQGTQVTVSS	low polyreactivity
QVQLVESGGGLVQAGGSLRLSCAASGSTFAIYAMGWYRQAPGKERELVAAINSGGSTNYADSVKGRFTISRDNAKNTVYLQMNSLKPEDTAVYYCNTDAWHETPVSGYSWGQGTQVTVSS	low polyreactivity
QVQLVESGGGLVQAGGSLRLSCAASGSTFAIYAMGWYRQAPGKERELVAAITRGSTSYADSVKGRFTISRDNAKNTVYLQMYSLKPEDTAVYYCAADSSRYGVIRDFDYWGQGTQVTVSS	high polyreactivity
QVQLVESGGGLVQAGGSLRLSCAASGSTFAKYVMGWYRQAPGKERELVAAISTRGTRTYYADSVKGRFTISRDTAKNTVYLQMNSLKPEDTAVYYCAVVTIISSRLGNYWGQGTQVTVSS	high polyreactivity
QVQLVESGGGLVQAGGSLRLSCAASGSTFAPNAMGWYRQAPGKERELVAAISSGSSTYYADSVKGRFTISRDNAKNTVYLQMNSLKPEDTAVYYCARRVSWGYYYWGQGTQVTVSS	high polyreactivity
QVQLVESGGGLVQAGGSLRLSCAASGSTFAPNAMGWYRQAPGKERELVAAISSGSSTYYADSVKGRFTISRDNAKNTVYLQMNSLKQEVNAVYYCAARSTYYSRKQLVDYWGQGTQVTVSS	high polyreactivity
QVQLVESGGGLVQAGGSLRLSCAASGSTFAPNAMGWYRQAPGKERELVAVIDSGDGTTYYADSVKGRFTISRDNAKNTVYLQMNSLKPEDTAVYYCAVDESTSYYDDHEDYWGQGTQVTVSS	low polyreactivity
QVQLVESGGGLVQAGGSLRLSCAASGSTFAPYAMGWYRHAPGKERELVASIRSTGSTNYADSVKGRFTISRDNAKNTVYLQMNSLKPEDTAVYYCAARYRRYQYRVKVDYYYWGQGTQVTVSS	high polyreactivity

Sequence	polyreactivity (PSR sort gate)
QVQLVESGGGLVQAGGSLRLSCAASGSTFAPYAMGWYRQAPGKERELVAVISSAGSTYYADSVKGRFTLSRDNAKNTDYLQRNSLKPEDTAVYYCAARAPSSISQSRGMYYWGQATQVTVSS	high polyreactivity
QVQLVESGGGLVQAGGSLRLSCAASGSTFAQNAMGWYRQAPGKERELVAAISRRGGSTYYADSVKGRFTISRDNAKNTVYLQMNSLKPEDTAVYYCAADQPVRQHHRDDYWGQGTQVTVSS	low polyreactivity
QVQLVESGGGLVQAGGSLRLSCAASGSTFAQNAMGWYRQAPGKERELVAAISRRGTITNYADSVKGRFTISRDNAKNTVYLQMNSLKPEDTAVYYCAKEGTWTGGSDNYWGQGTQVTVSS	high polyreactivity
QVQLVESGGGLVQAGGSLRLSCAASGSTFAQNTMGSYRQAPGKERELVATISDGGGSTYYADSVKGRFTISRDNAKNTVYLQMNSLKPEDTAVYYCNTDRFWPSYYWGQGTQVTVSS	low polyreactivity
QVQLVESGGGLVQAGGSLRLSCAASGSTFARNVMGWYRQAPGKERELVAAISWRGGRTYYADSVKGRFTISRDNAKNTVYLQMNSLKPEDTAVYYCNAVKRLKVTHSYEYGYWGQGTQVTVSS	high polyreactivity
QVQLVESGGGLVQAGGSLRLSCAASGSTFARYAMGWSRQAPGKERELVAAISDSSGSTYYADSVKGRFTISRDNAKNTVYLQMNSLKPEDTAVYYCRYYFGSGYYYWGQGTLVTVSS	high polyreactivity
QVQLVESGGGLVQAGGSLRLSCAASGSTFARYAMGWYRQAHGKERELVAAISRRGGSTYYADSVKGRFTISRDNAKNTVYVQMNSLKPEDTAVHYCAARYGIISSFEYDYWGQGTQVTVSS	high polyreactivity
QVQLVESGGGLVQAGGSLRLSCAASGSTFARYAMGWYRQAPGKERELFAVITWTGGSTYYADSVKGRFTISRDNAKNTVYLQMNSLKPEDTAVYYCAADFRYYVTALKYDYWGQGTQVTVSS	low polyreactivity
QVQLVESGGGLVQAGGSLRLSCAASGSTFARYAMGWYRQAPRKERELVAAISRSGGSTNYADSVKGRFTISRDNAKNTVYLQMNSLKPEDTAVYYCAVRSGYYDKYVRGYDYWGQGTQVTVSS	high polyreactivity
QVQLVESGGGLVQAGGSLRLSCAASGSTFARYTMGWYRQAPGKERELVAAITSNGVSTYYADSVKGRFTISRDNAKNTVYLQMNSLKPEDTAVYYCAAEYRPRYKRIWVVTKDYWGQGTQVTVSS	low polyreactivity
QVQLVESGGGLVQAGGSLRLSCAASGSTFASHVMGWYRQAPGKERELVAAITRGDRTHYADSVKGRFTISRDNAKNTVYLQMNSLKPEDTAVYYCAKVTTLGRSRDYWGQGTQVTVSS	low polyreactivity
QVQLVESGGGLVQAGGSLRLSCAASGSTFASNAMGWDRQAPGKERELVAVITWRGDRTYYADSVKGRFTISRDNAKNTVYLQMNSLKPEDTAVYYCAADAYRRYGVGWEDYWGQGTQVTVSS	high polyreactivity
QVQLVESGGGLVQAGGSLRLSCAASGSTFATNAMGWDRQAPGKERELVASISSGGSTTYADSVKGRFTISRDNAKNTVYLQMNSLKPEDTAVYYCNKRYLWRNSRGFDYWGQGTQVTVSS	low polyreactivity
QVQLVESGGGLVQAGGSLRLSCAASGSTFATYAMGWYRQAPGKERELVAAITSGGSTYYADSVKGRFTISRDNAKNTFYFQMNSLKPEDTAVYYCAARSAGWRRATYYKREEYWGQGTQVTVSS	high polyreactivity
QVQLVESGGGLVQAGGSLRLSCAASGSTFATYTMGWYRQAPGTERELVAAITGSVGSTYYADSVMGRFTISRDNAKNTVYVQMNSRKPQDTAVFYCAARGYRTRRGFTYQYRYEYWGQGTQVTVSS	high polyreactivity
QVQLVESGGGLVQAGGSLRLSCAASGSTFAVNAMGWYRQAPGKERELVAAITSGGNTYADSVKGRFTISRDNAKNTVYLQMNSLKPEDTAVYYCAAALTEVVYWIYDYWGQGTQVTVSS	low polyreactivity
QVQLVESGGGLVQAGGSLRLSCAASGSTFAVYAMGWYRPAPGKERELVAGISSRGGRTYYADSVKGRFTISRDNAKNTVYLQMNSLKPEDTAVYYCAARFKGNPDRYGYWGQGTQVTVSS	high polyreactivity
QVQLVESGGGLVQAGGSLRLSCAASGSTFAVYGMGWYRQAPGKERELVAAISSSGARTYYADSVKGRFTISRDNAKNTVYLQMNSLKPEDTAVYYCAALPHRQAGYDYWGLGTQVTVSS	high polyreactivity
QVQLVESGGGLVQAGGSLRLSCAASGSTFAWNAMGWYRQAPGKERELVAAISKSGGSTYYADSVKGRFTISRDHAKNTVYLQMNSLTPEDTAVYYCAARGTVYRRYGGSRYDYWGQGTQVTVSS	high polyreactivity
QVQLVESGGGLVQAGGSLRLSCAASGSTFAWNVMGWYRQAPGKERELVAAISGRGGSTYYADSVKGRFTISRDNAKNTVYLQMNSLKPEDTAVYYCNKVYGRSRDVYDYDYWGQGTQVTVSS	high polyreactivity
QVQLVESGGGLVQAGGSLRLSCAASGSTFAWYAMGWYRQAPGKERELVATISSSGVSTFYADSVKGRFTISRDNAKNTVYLQMNSLKPEDTAVYYCNRYGNSYYFAPGPLYNYWGQGTQVTVSS	high polyreactivity
